Reference: the DeepSol protein solubility set

test: soluble on expression in E. coli; label from the status in PepcDB or PDB records

Soluble on expression in E. coli, not soluble:
MGSDKIHHHHHHMAFSFDSRIRYSEVDSSCRLSLTGLTNYFQDCSVFHSQSHDVGIRFLADNHIAWVLSSWQICINRLPLLNEQVKISTWAYGMKAFYGYRNFTLEDAGGSTLAYANSVWVLVDTRTGRPVKVPQEFADTYGLEPQLEMECAKRKLHIPDDMEKKGEIVVPQFFIDSNHHMNNEKYVMLAQQLLPNDFEISELRVEYRKEAKLGDTVISYVKYTSKSVTVVLADTDKKPYSVVEFLSKPVPGK
MGSDKIHHHHHHMAFYPVHKELQNISQSMPQGNFGLWYNKFIPLSDDAFKPSDDKGSNGKGDENRPVDYYFGQYSKLRLNAAETAAILKQKHEDMDDFCANFPPQKYEEIAICATLDSPLITGIGESHPHEVSMVFDHNMGIPYIPASGVKGIVRFAHTISLIPEAMNKAEVIDNVRFDDEADWTSVPHMFGTQKNRGNVIFLDAYPEDIPALHMDIMNPHYSPYYSEGKPPADHHNPTPIKFLTVAKGTKFIFRAVAKKEQNLPQKIRVAFAEALTKEGVGAKIALGYGRFVIDEDGQKVLLKKRKQRHEEKKRRLSPWLDYIELINQVGDWGQFKQIVLDNEKLVEYRKEMDVTEAVRIKALEIRNKWRKSWGASRDEQIATWLQPAGVEWPCIVAGIENPVKEKSADYEKIMQLIDWGAYKSAGIDLSKLPLDALQLLKQKMEEWGCYSKKAKEDKKTAFKKVKDLLRQHQK
MGSDKIHHHHHHMAHADIFNAIYTNKVWGNGSGEGSAEELTRDYRKFLHNFLRANHIRSVVDLGCGDWQFSRHMDWSGIEYCGIDVSSVVLETTRNFSAPNIRFQEMNGIEGELPSADLLICKDVVQHWSNTDILQLFPKLPRFRLALITNAFHPAITENQDIVTGDFRPLNLLAKPFDIKGSYIYCFMAGEPKGVFLWSRGD
MGSDKIHHHHHHMAKAKTQFVCSNCGYSTPRYLGRCPNCGEWNTLTEEHFDTKPDRKSRVSFAGKSAKPQRLKEVSLTKTPRVKTKLKEFNRVLGGGVVPGSLVLIGGDPGIGKSTLLLQVSGQLAETGGSVLYVTGEESASQVKMRADRLAVSSEDFYLYPETDMSNIRSTIESTHPEFVVIDSVQTMQEPDMDSAIGSVSQIREITAELLQIAKTNGITIFIVGHVTKGGAIAGPKILEHMVDTVLYFEGDLHHTYRILRAVKNRFGSTNELGIFEMRTGGLYEVANPSEIFLEERLKDATGSAIVVSMEGTRPILVEVQALVTPTVFGNAKRTASGLDHNRVSLIMAVLEKRASLMLQNQDAYLKAAGGVKLDEPAIDLAIAVSVASSYRDQQTRPSDCFVGEVGLTGEIRRVNRIESRVGEAAKLGFKRIFIPKNNLQGWDIPTGIEVIGVATLKEALQLALQQPNY
MGSDKIHHHHHHMAKIAYILLCHKDPDAIIMQAERLTAAGDYMSIHFDARARKADFARIRKALADNPNVTFARRRIKCGWGEWSLVQATLNAIEAAVDEFPRATHFYMLSGDCMAIKTAEYAHSFLDAQDKDYIESFDYFESDWIKTGWKEERLIYRHWFNERTQKRRFYAMFQAQKRLGLTREIPSDIQVMIGSQWWCLRRRTIEWILDFTRKRRDVMQFFATTWIPDETFFQTLVRHLIPEDEIDPRTLTFLMFSDYGMPVSFYNDHYDLLLSQDFLFARKISPEAKELKARLGRLYAAHGVQFQISNEGRNLYKFLTGRGRIGRRFSMRFWETESTLGRERELMILVCKKWHVAKRLLDQIRQVTNVPSIEYLFNEEGTPLPDLGGIQATLEKRTRHRRALMRMLFEYFDTDRLVICLDPTNLELMHDFFSDRSVTRMLEIECQFTDEYLIGHSYRVGLAGERTPKATLERLLPTIRNEMTYEADRIRDAGFARYGRIHQTSTPEENADKVAEFLSIPWDQALRITQTDHLFAD
MGSDKIHHHHHHMALEPQIKSAPTPVILIVEPYGGSIRQQNPNLPMVFWDDAALTRGDGIFETLLIRDGHACNVRRHGERFKASAALLGLPEPILEDWEKATQMGIESWYSHPNAGEASCTWTLSRGRSSTGLASGWLTITPVSSDKLAQREHGVSVMTSSRGYSIDTGLPGIGKATRGELSKVERTPAPWLTVGAKTLAYAANMAALRYAKSNGFDDVIFTDGDRVLEGATSTVVSFKGDKIRTPSPGGDILPGTTQAALFAHATEKGWRCKEKDLSIDDLFGADSVWLVSSVRGPVRVTRLDGHKLRKPDNEKEIKALITKALG
